# Assay results from publication PMC10954469, “Molecular and thermodynamic determinants of self-assembly and hetero-oligomerization in the enterobacterial thermo-osmo-regulatory protein H-NS” (Nucleic Acids Research, 2024).
# B1: H-NS (histone-like or heat-stable nucleoid structuring protein) (natural protein, E. coli (uropathogenic))
# chain: MSEALKILNNIRTLRAQARECTLETLEEMLEKLEVVVNERREEESAAAAEVEERTRKLQQYREMLIADGIDPNELLNSLAAVKSGTKAKRAQRPAKYSYVDENGETKTWTGQGRTPAVIKKAMDEQGKSLDDFLIKQ
# notes: H-NS from uropathogenic E. coli, whole protein as printed in the methods; Expressed as the fusion H-NS:intein:CBD and released by cleavage with beta-mercaptoethanol; also called WT H-NS; wild-type H-NS; source: E. coli BL21(DE3), pTXB1 vector, purified (chitin column, intein-mediated cleavage, Superdex 200 SEC)
# B2: H-NS Y61E, phosphomimetic mutant (natural protein)
# chain: MSEALKILNNIRTLRAQARECTLETLEEMLEKLEVVVNERREEESAAAAEVEERTRKLQQEREMLIADGIDPNELLNSLAAVKSGTKAKRAQRPAKYSYVDENGETKTWTGQGRTPAVIKKAMDEQGKSLDDFLIKQ
# notes: H-NS from uropathogenic E. coli; also called Y61E mutant; source: E. coli BL21(DE3), pTXB1 vector, purified following identical protocols as H-NS
# B3: H-NS (histone-like or heat-stable nucleoid structuring protein), wild type (natural protein, uropathogenic E. coli)
# chain: MSEALKILNNIRTLRAQARECTLETLEEMLEKLEVVVNERREEESAAAAEVEERTRKLQQYREMLIADGIDPNELLNSLAAVKSGTKAKRAQRPAKYSYVDENGETKTWTGQGRTPAVIKKAMDEQGKSLDDFLIKQ
# notes: H-NS from uropathogenic E. coli, 137 residues as printed; Polydisperse in solution: monomers, dimers, tetramers and octamers; Expressed as H-NS:intein:CBD fusion; also called H-NS WT; wild-type H-NS; source: E. coli BL21(DE3), pTXB1 vector, purified (chitin column, intein cleavage, Superdex 200 SEC)
# B4: H-NSm (W109F H-NS), tryptophan null variant of H-NS (natural protein)
# chain: MSEALKILNNIRTLRAQARECTLETLEEMLEKLEVVVNERREEESAAAAEVEERTRKLQQYREMLIADGIDPNELLNSLAAVKSGTKAKRAQRPAKYSYVDENGETKTFTGQGRTPAVIKKAMDEQGKSLDDFLIKQ
# notes: H-NS from uropathogenic E. coli; also called H-NS tryptophan variant; source: E. coli BL21(DE3), pTXB1 vector, purified following identical protocols as H-NS
# B5: Y61Em (Y61E/W109F H-NS) (natural protein)
# chain: MSEALKILNNIRTLRAQARECTLETLEEMLEKLEVVVNERREEESAAAAEVEERTRKLQQEREMLIADGIDPNELLNSLAAVKSGTKAKRAQRPAKYSYVDENGETKTFTGQGRTPAVIKKAMDEQGKSLDDFLIKQ
# notes: H-NS from uropathogenic E. coli; source: E. coli BL21(DE3), pTXB1 vector, purified following identical protocols as H-NS
# Assays:
# [1] = target: the molecule itself; assay: AUC + other: differential scanning calorimetry; parameters of the thermodynamic model that best capture the AUC and DSC observations; defined at the reference temperature TD 333 K; 150 mM ionic strength, pH 7; dimer to monomers
# [2] = target: the molecule itself; assay: AUC + other: differential scanning calorimetry; parameters of the thermodynamic model that best capture the AUC and DSC observations; defined at the reference temperature TD 333 K; 300 mM ionic strength, pH 7; dimer to monomers
# [3] = target: the molecule itself; assay: AUC + other: differential scanning calorimetry; thermodynamic model set semi-quantitatively to match AUC populations (20 °C) and DSC thermograms; constant predicted by the model for 13 °C; 300 mM ionic strength, pH 7; dimer to monomers
# [4] = target: the molecule itself; assay: AUC + other: differential scanning calorimetry; thermodynamic model set semi-quantitatively to match AUC populations (20 °C) and DSC thermograms; constant predicted by the model for 25 °C; 300 mM ionic strength, pH 7; dimer to monomers
# [5] = target: the molecule itself; assay: AUC + other: differential scanning calorimetry; thermodynamic model set semi-quantitatively to match AUC populations (20 °C) and DSC thermograms; constant predicted by the model for 37 °C; 300 mM ionic strength, pH 7; dimer to monomers
# [6] = target: the molecule itself; assay: AUC + other: differential scanning calorimetry; parameters of the thermodynamic model that best capture the AUC and DSC observations; defined at the reference temperature TO 333 K; 150 mM ionic strength, pH 7; tetramer to dimers and octamer to tetramers (one constant KO for both steps)
# [7] = target: the molecule itself; assay: AUC + other: differential scanning calorimetry; parameters of the thermodynamic model that best capture the AUC and DSC observations; defined at the reference temperature TO 333 K; 300 mM ionic strength, pH 7; tetramer to dimers and octamer to tetramers (one constant KO for both steps)
# [8] = target: the molecule itself; assay: AUC + other: differential scanning calorimetry; thermodynamic model set semi-quantitatively to match AUC populations (20 °C) and DSC thermograms; constant predicted by the model for 13 °C; 150 mM ionic strength, pH 7; tetramer to dimers and octamer to tetramers (one constant KO for both steps)
# [9] = target: the molecule itself; assay: AUC + other: differential scanning calorimetry; thermodynamic model set semi-quantitatively to match AUC populations (20 °C) and DSC thermograms; constant predicted by the model for 13 °C; 300 mM ionic strength, pH 7; tetramer to dimers and octamer to tetramers (one constant KO for both steps)
# [10] = target: the molecule itself; assay: AUC + other: differential scanning calorimetry; thermodynamic model set semi-quantitatively to match AUC populations (20 °C) and DSC thermograms; constant predicted by the model for 25 °C; 300 mM ionic strength, pH 7; tetramer to dimers and octamer to tetramers (one constant KO for both steps)
# [11] = target: the molecule itself; assay: AUC + other: differential scanning calorimetry; thermodynamic model set semi-quantitatively to match AUC populations (20 °C) and DSC thermograms; constant predicted by the model for 37 °C; 300 mM ionic strength, pH 7; tetramer to dimers and octamer to tetramers (one constant KO for both steps)
# [12] = target: the molecule itself; assay: AUC + other: differential scanning calorimetry; thermodynamic model (octamer, tetramer, dimer, folded and unfolded monomer) whose parameters were set semi-quantitatively to match AUC populations (20 °C) and DSC thermograms; constant predicted by the model for 13 °C; 150 mM ionic strength, pH 7; dimer to monomers
# [13] = target: the molecule itself; assay: AUC; sedimentation velocity, 20°C, 150 mM ionic strength, pH 7, 15-200 μM protein, c(s) analysis with SEDFIT
# [14] = target: the molecule itself; assay: AUC + other: differential scanning calorimetry; thermodynamic model brought into semi-quantitative agreement with AUC populations and DSC curves; 150 mM ionic strength, pH 7; constant at 25°C; dimer to monomers
# [15] = target: the molecule itself; assay: AUC + other: differential scanning calorimetry; thermodynamic model brought into semi-quantitative agreement with AUC populations and DSC curves; 150 mM ionic strength, pH 7; constant at 37°C; dimer to monomers
# [16] = target: the molecule itself; assay: AUC + other: differential scanning calorimetry; thermodynamic model brought into semi-quantitative agreement with AUC populations and DSC curves; 150 mM ionic strength, pH 7; constant at 25°C; tetramer to dimers and octamer to tetramers (one constant KO for both)
# [17] = target: the molecule itself; assay: AUC + other: differential scanning calorimetry; thermodynamic model brought into semi-quantitative agreement with AUC populations and DSC curves; 150 mM ionic strength, pH 7; constant at 37°C; tetramer to dimers and octamer to tetramers (one constant KO for both)
# [18] = target: B3; assay: fluorescence polarisation; steady-state tryptophan (W109) anisotropy of 2 μM wild-type H-NS with 30 nM to 50 μM H-NSm, 150 mM ionic strength, pH 7, 13, 25 and 37°C; details: both partners purified
# [19] = target: T1, Cnu, co-repressor of the Hha family (E. coli, UniProt P64467 1-71); assay: other fluorescence titration; tryptophan (W67) emission of 2 μM Cnu, excitation 295 nm, with 30 nM to 50 μM tryptophan-free H-NS variant; intensity-averaged wavenumber; Hill equation, apparent (K1/2); 150 mM ionic strength, pH 7, 25°C; details: both partners purified
# T1 construct: Cnu, a member of the Hha family in E. coli; harbors a sole tryptophan (W67)
# T1 sequence (looked up): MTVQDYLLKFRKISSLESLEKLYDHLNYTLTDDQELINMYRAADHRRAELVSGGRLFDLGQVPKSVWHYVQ
# [20] = target: T1, Cnu, co-repressor of the Hha family; assay: other fluorescence titration; tryptophan (W67) emission of 2 μM Cnu, excitation 295 nm, with 30 nM to 50 μM tryptophan-free H-NS variant; intensity-averaged wavenumber; Hill equation, apparent (K1/2); 300 mM ionic strength, pH 7, 25°C; details: both partners purified
binder,measurement,setting,value
B1,Kd,[1],1000 µM
same,Kd,[2],100 µM
same,Kd,[3],1.19 µM
same,Kd,[4],4.22 µM
same,Kd,[5],13.6 µM
same,Kd,[6],100 µM
same,Kd,[7],100 µM
same,Kd,[8],17 µM
same,Kd,[9],9.39 µM
same,Kd,[10],18.5 µM
same,Kd,[11],34.5 µM
same,Kd,[12],0.0238 µM
B2,stoichiometry N,[13],2
B3,Kd,[14],~0.5 µM
same,Kd,[15],~8 µM
same,Kd,[16],~30 µM
same,Kd,[17],~45 µM
B4,binding result,[18],binds
same,Kd,[19],4 µM
same,Kd,[20],12 µM
B5,Kd,[19],1.6 µM
